System: pCGS206 (luciferase reporter with response elements for the GAL4 DNA binding domain)
Assay: Maize BMS cells bombarded with GAL4 luciferase reporter and receptor vector, GUS-normalized luciferase
Assay type: cell-based
Conditions: for Normalized Average (EtOH): unliganded background
Description: (§1) Maize BMS (Black Mexican Sweet) cultured cells are transfected with pCGS206 and pCGS208 by high velocity microprojectile bombardment. In addition, an expression plasmid containing the maize ubiquitin promoter driving the expression of β-glucuronidase (GUS) is added to the transfection to serve as an internal control to normalize against variations among the samples.
(§2) Transfections are treated and cell lysates are made essentially as described in U.S. Pat. No. 5,880,333. […] Both luciferase and GUS assays are performed with 20 μl of cell lysate for each assay using the Promega Luciferase Kit (Promega cat #E1500) and GUS-Light Kit (Tropix) respectively. Relative light units are determined using a Turner Designs TD 20/20 luminometer.
In addition to tebufenozide, methoxytebufenozide (“MethoxyTeb”) is also capable of inducing gene expression in maize BMS cells. Both pCGS206 and pCGS208 are transfected as described above and methoxytebufenozide is added in place of tebufenozide at 25 μM and 10 μM.
Maize BMS cells are transfected and assayed as in Example 12.
as §1, with “Transformation of maize suspension cells, chemical treatment, and reporter activity assays are performed as described in Example 12. Maize” for “Maize”, “pCGS206 (pBS-bz1TATA/intronLUC), pCGS203 (G(M)MV), pCGS672 (G(M)MC),” for “pCGS206”, “pCGS678 (G(M)MD)” for “pCGS208”
as §2, with “Maize BMS cells are bombarded with reporter vector pCGS206 and chimeric receptors and treated with tebufenozide essentially as described in Example 12. Transfections” for “Transfections”, “units (RLU)” for “units”

[1] = Example 24, Experiment 1, 20 μM Teb
[2] = Example 24, Experiment 1, BMS cells
[3] = Example 24, Experiment 2, 20 μM Teb
[4] = Example 24, Experiment 2, BMS cells
[5] = Example 26, + 10 μM Teb vs without
[6] = Example 26, BMS cells, reporter pCGS206, no ligand
[7] = Example 28, BMS cells, reporter pCGS206, no ligand, GUS-normalized

Molecule | average fold activation of the Manduca G(M)MV EcR (ubi/GAL4-MV) (maize BMS cells, methoxytebufenozide 25 μM and 10 μM) | Fold Induction with Teb Relative to Receptor with EtOH [1] | Fold Induction with Teb Relative to Reporter with EtOH [1] | Normalized Average (EtOH) [2] | Fold Induction with Teb Relative to Receptor with EtOH [3] | Fold Induction with Teb Relative to Reporter with EtOH [3] | Normalized Average (EtOH) [4] | Experiment #1 Luciferase (Example 26, + 10 μM Teb) | Experiment #2 Luciferase (Example 26, + 10 μM Teb) | Experiment #1 Fold Induction [5] | Experiment #2 Fold Induction [5] | Experiment #1 Luciferase [6] | Experiment #2 Luciferase [6] | Experiment #1 RLU [7] | Experiment #2 RLU [7] | average fold induction with tebufenozide (maize BMS cells, 10 μM tebufenozide, average of assays) | rank of fold induction among D+E domain combinations (Example 24, BMS cells, 20 μM Teb)
COc1cccc(C(=O)NN(C(=O)c2cc(C)cc(C)c2)C(C)(C)C)c1C [methoxytebufenozide, reference compound] | 25 fold | – | – | – | – | – | – | – | – | – | – | – | – | – | – | – | –
G(M)MV: EcR chimera: GAL4 DNA binding domain, Manduca sexta D and E domains, VP16; SEQ ID NO:104-105 (protein, (1)..(3972) GAL4-Manduca EcR-VP16 fragment in pCGS202) MKLLSSIEQACDICRLKKLKCSKEKPKCAKCLKNNWECRYSPKTKRSPLTRAHLTEVESRLERLEQLFLLIFPREDLDMILKMDSLQDIKALLTGLFVQDNVNKDAVTDRLASVETDMPLTLRQHRISATSSSEESSNKGQRQLTVSTRMRPECVVPESTCKNKRREKEAQREKDKLPVSTTTVDDHMPAIMQCDPPPPEAARIHEVVPRFLTEKLMEQNRLKNVTPLSANQKSLIARLVWYQEGYEQPSEEDLKRVTQTWQLEEEEEEETDMPFRQITEMTILTVQLIVEFAKGLPGFSKISQSDQITLLKASSSEVMMLRVARRYDAATDSVLFANNQAYTRDNYRKAGMSYVIEDLLHFCRCMYSMSMDNVHYALLTAIVIFSDRPGLEQPLLVEEIQRYYLKTLRVYILNQHSASPRCAVLFGKILGVLTELRTLGTQNSNMCISLKLKNRKLPPFLEEIWDVAEVSTTKLAPPTDVSLGDELHLDGEDVAMAHADALDDFDLDMLGDGDSPGPGFTPHDSAPYGALDMADFEFEQMFTDALGIDEYGG | – | 44 fold | 83 fold | 6.889 | 15 fold | 61 fold | 1.721 | 99.49 | 136.41 | 16.7 fold | 35.1 fold | 5.97 | 3.89 | 3.73 RLU | 3.17 RLU | 36 fold | –
G(M)BV: EcR chimera: GAL4 DBD, Manduca sexta D domain, black cutworm E domain, VP16; SEQ ID NO:118-119 (protein) MQQLYVDFFSPAFIRYLFAWYCFFCRCSPCCLVLLLQGSATMKLLSSIEQACDICRLKKLKCSKEKPKCAKCLKNNWECRYSPKTKRSPLTRAHLTEVESRLERLEQLFLLIFPREDLDMILKMDSLQDIKALLTGLFVQDNVNKDAVTDRLASVETDMPLTLRQHRISATSSSEESSNKGQRQLTVSTRMRPECVVPESTCKNKRREKEAQREKDKLPVSTTTVDDHMPAIMQCDPPPPEAARIHEVVPRFLTEKLMEQNRLKNVTPLSANQKSLIARLVWYQEGYEQPSEEDLKRVTQTWQSDEDEEESDMPFRQITEMTILTVQLIVEFAKGLPGFAKISQSDQITLLKACSSEVMMLRVARRYDAATDSVLFANNQAYSRDNYRKAGMSYVIEDLLHFCRCMYSMMMDNVHYALLTAIVIFSDRPGLEQPLLVEEIQRYYLNTLRVYILNQNSASPRCPVVFAKILGILTELRTLGMQNSNMCISLKLKNRKLPPFLEEIWDVESRGKLAPPTDVSLGDELHLDGEDVAMAHADALDDFDLDMLGDGDSPGPGFTPHDSAPYGALDMADFEFEQMFTDALGIDEYGG | – | 34 fold | 81 fold | 8.701 | 26 fold | 95 fold | 1.539 | – | – | – | – | – | – | – | – | – | –
G(M)EV: EcR chimera: GAL4 DBD, Manduca sexta D domain, European corn borer E domain, VP16; SEQ ID NO:120-121 (protein) MQQLYVDFFSPAFIRYLFAWYCFFCRCSPCCLVLLLQGSATMKLLSSIEQACDICRLKKLKCSKEKPKCAKCLKNNWECRYSPKTKRSPLTRAHLTEVESRLERLEQLFLLIFPREDLDMILKMDSLQDIKALLTGLFVQDNVNKDAVTDRLASVETDMPLTLRQHRISATSSSEESSNKGQRQLTVSTRMRPECVVPESTCKNKRREKEAQREKDKLPVSTTTVDDHMPAIMQCDPPPPEAARIHEVVPRFLTEKLMEQNRLKNVTPLSANQKSLIARLVWYQDGYEQPSEEDLKRVTQTWQSADEEDEDSDMPFRQITEMTILTVQLIVEFAKGLPGFSKISQPDQITLLKACSSEVMMLRVARRYDAVSDSVLFANNQAYTRDNYRKAGMAYVIEDLLHFCRCMYSMSMDNVHYALLTAIVIFSDRPGLEQPQLVEEIQRYYLNTLRVYIMNQHSASPRCAVIYAKILSVLTELRTLGMQNSNMCISLKLKNRKLPPFLEEIWDVKLAPPTDVSLGDELHLDGEDVAMAHADALDDFDLDMLGDGDSPGPGFTPHDSAPYGALDMADFEFEQMFTDALGIDEYGG | – | 63 fold | 119 fold | 6.965 | 58 fold | 139 fold | 0.028 | – | – | – | – | – | – | – | – | – | highest fold induction
G(M)FV: EcR chimera: GAL4 DBD, Manduca sexta D domain, fall armyworm E domain, VP16; SEQ ID NO:122-123 (protein) MQQLYVDFFSPAFIRYLFAWYCFFCRCSPCCLVLLLQGSATMKLLSSIEQACDICRLKKLKCSKEKPKCAKCLKNNWECRYSPKTKRSPLTRAHLTEVESRLERLEQLFLLIFPREDLDMILKMDSLQDIKALLTGLFVQDNVNKDAVTDRLASVETDMPLTLRQHRISATSSSEESSNKGQRQLTVSTRMRPECVVPESTCKNKRREKEAQREKDKLPVSTTTVDDHMPAIMQCDPPPPEAARIHEVVPRFLTEKLMEQNRLKNVTPLSANQKSLIARLVWYQEGYEQPSEEDLKRVTQTWQLEEEEEEETDMPFRQITEMTILTVQLIVEFAKGLPGFSKISQSDQITLLKASSSEVMMLRVARRYDAATDSVLFANNQAYTRDNYRKAGMSYVIGDLLHFCRCMYSMSMDNVHYALLTAIVIFSDRPGLEQPLLVEEIQRYYLKTLRVYILNQYSASPRCAVLFGKILGVLTELRTLGTQNSNMCISLKLKNRKLPPFLEEIWDVKLAPPTDVSLGDELHLDGEDVAMAHADALDDFDLDMLGDGDSPGPGFTPHDSAPYGALDMADFEFEQMFTDALGIDEYGG | – | 51 fold | 52 fold | 3.766 | 24 fold | 57 fold | 0.484 | – | – | – | – | – | – | – | – | – | –
G(E)EV: EcR chimera: GAL4 DBD, European corn borer D and E domains, VP16; SEQ ID NO:124-125 (protein) MQQLYVDFFSPAFIRYLFAWYCFFCRCSPCCLVLLLQGSATMKLLSSIEQACDICRLKKLKCSKEKPKCAKCLKNNWECRYSPKTKRSPLTRAHLTEVESRLERLEQLFLLIFPREDLDMILKMDSLQDIKALLTGLFVQDNVNKDAVTDRLASVETDMPLTLRQHRISATSSSEESSNKGQRQLTVSTRMRPECVVPETQCAQKRKEKKAQREKDKLPVSTTTVDDHMPPIMQCDPPPPEAARILECLQHEVVPRFLSEKLMEQNRLKNIPPLTANQQFLIARLVWYQDGYEQPSEEDLKRVTQTWQSADEEDEDSDMPFRQITEMTILTVQLIVEFAKGLPGFSKISQPDQITLLKACSSEVMMLRVARRYDAVSDSVLFANNQAYTRDNYRKAGMAYVIEDLLHFCRCMYSMSMDNVHYALLTAIVIFSDRPGLEQPQLVEEIQRYYLNTLRVYIMNQHSASPRCAVIYAKILSVLTELRTLGMQNSNMCISLKLKNRKLPPFLEEIWDVKLAPPTDVSLGDELHLDGEDVAMAHADALDDFDLDMLGDGDSPGPGFTPHDSAPYGALDMADFEFEQMFTDALGIDEYGG | – | 57 fold | 119 fold | 7.601 | 17 fold | 99 fold | 2.394 | – | – | – | – | – | – | – | – | – | –
